The values below come from publication PMC8481291 (Nature Communications, 2021).

Several values for one entry are separate records, joined by “and”; a condition that tells them apart may be missing. Equal values may be shown once.

The target of series [1] is tES–F116H(+) (Archaeoglobus fulgidus). In words: AUC.
Series [2] addresses tES–F116H(+/–) (Archaeoglobus fulgidus). The experiment in a line: AUC.
The target of series [3] is tES–F116H(–) (Archaeoglobus fulgidus). In words: AUC.
The target of series [4] is tES–F116H(+) (Archaeoglobus fulgidus). The experiment in a line: AUC; sedimentation of tES–F116H/POI samples (1 µM) in PBS, 20 °C, absorbance at 280 nm; POI loaded into tES by pH shift 5.8 to 8.0 and dialysis.
The series “AUC” concerns the molecule itself. In words: AUC.
The target of series [5] is tES–F116H(+) (Archaeoglobus fulgidus). The experiment in a line: AUC. The source holds these as a separate data set.

Regarding “Tumor protein 53, stabilized clone (from UniProt P04637 1-393) (natural protein)”, the stoichiometry N (p53 per tES shell) in series [1] and in series [2] was 1 each time.

rFasxiator (natural protein) returned a stoichiometry N (rFasxiator per tES shell) in series [3] of 3.

With “Renilla luciferin 2-monooxygenase (from UniProt P27652 1-311) (enzyme)”, in series [4], the stoichiometry N (rLuc per tES shell) was 2 and 1.

B1: Shrimp alkaline phosphatase (enzyme, UniProt Q9BHT8 1-475, looked up)
chain: KAYWNKDAQDALDKQLGIKLREKQAKNVIFFLGDGMSLSTVTAARIYKGGLTGKFEREKISWEEFDFAALSKTYNTDKQVTDSAASATAYLTGVKTNQGVIGLDANTVRTNCSYQLDESLFTYSIAHWFQEAGRSTGVVTSTRVTHATPAGTYAHVADRDWENDSDVVHDREDPEICDDIAEQLVFREPGKNFKVIMGGGRRGFFPEEALDIEDGIPGEREDGKHLITDWLDDKASQGATASYVWNRDDLLAVDIRNTDYLMGLFSYTHLDTVLTRDAEMDPTLPEMTKVAIEMLTKDENGFFLLVEGGRIDHMHHANQIRQSLAETLDMEEAVSMALSMTDPEETIILVTADHGHTLTITGYADRNTDILDFAGISDLDDRRYTILDYGSGPGYHITEDGKRYEPTEEDLKDINFRYASAAPKHSVTHDGTDVGIWVNGPFAHLFTGVYEENYIPHALAYAACVGTGRTFCDEK
notes: also called sAP; AP
The stoichiometry N is a count of units in the complex or per binding partner. For B1, the “stoichiometry N” value in the series “AUC” came out at 2. In series [5], the stoichiometry N (sAP per tES shell) turned out to be 1.
